Measured values reported in patent publication US20180222952A1 (NEW YORK UNIVERSITY, published 2018).

B3: Recombinant GBA (glucocerebrosidase; R&D Systems Cat. No. 7410-GH-010) (enzyme, UniProt P04062 40-536, looked up)
chain: ARPCIPKSFGYSSVVCVCNATYCDSFDPPTFPALGTFSRYESTRSGRRMELSMGPIQANHTGTGLLLTLQPEQKFQKVKGFGGAMTDAAALNILALSPPAQNLLLKSYFSEEGIGYNIIRVPMASCDFSIRTYTYADTPDDFQLHNFSLPEEDTKLKIPLIHRALQLAQRPVSLLASPWTSPTWLKTNGAVNGKGSLKGQPGDIYHQTWARYFVKFLDAYAEHKLQFWAVTAENEPSAGLLSGYPFQCLGFTPEHQRDFIARDLGPTLANSTHHNVRLLMLDDQRLLLPHWAKVVLTDPEAAKYVHGIAVHWYLDFLAPAKATLGETHRLFPNTMLFASEACVGSKFWEQSVRLGSWDRGMQYSHSIITNLLYHVVGWTDWNLALNPEGGPNWVRNFVDSPIIVDITKDTFYKQPMFYHLGHFSKFIPEGSQRVGLVASQKNDLDAVALMHPDGSAVVVVLNRSSKDVPLTIKDPAVGFLETISPGYSIHTYLWRRQ
modifications: biotin-labeled (EZ-Link Sulfo-NHS-LC-Biotin) in the solid phase binding assays; unlabeled in SPR
notes: also called GCase; biotin-labeled GBA
B5: Recombinant His-tag PGRN protein (full length progranulin) (ligand)
chain: TRCPDGQFCPVACCLDPGGASYSCCRPLLDKWPTTLSRHLGGPCQVDAHCSAGHSCIFTVSGTSSCCPFPEAVACGDGHHCCPRGFHCSADGRSCFQRSGNNSVGAIQCPDSQFECPDFSTCCVMVDGSWGCCPMPQASCCEDRVHCCPHGAFCDLVHTRCITPTGTHPLAKKLPAQRTNRAVALSSSVMCPDARSRCPDGSTCCELPSGKYGCCPMPNATCCSDHLHCCPQDTVCDLIQSKCLSKENATTDLLTKLPAHTVGDVKCDMEVSCPDGYTCCRLQSGAWGCCPFTQAVCCEDHIHCCPAGFTCDTQKGTCEQGPHQVPWMEKAPAHLSLPDPQALKRDVPCDNVSSCPSSDTCCQLTSGEWGCCPIPEAVCCSDHQHCCPQGYTCVAEGQCQRGSEIVAGLEKMPARRASLSHPRDIGCDQHTSCPVGQTCCPSLGGSWACCQLPHAVCCEDRQHCCPAGYTCNVKARSCEKEVVSAQPATFLARSPHVGVKDVECGEGHFCHDNQTCCRDNRQGWACCPYRQGVCCADRRHCCPAGFRCAARGTKCLRREAPRWDAPLRDPALRQLL
notes: also called rPGRN; His-tagged PGRN; not shown: His tag

How the values were obtained:
[1] = target: B3; experiment: solid phase binding, Pcgin coated, biotin-labeled GCase, ELISA-based detection
Procedure: (§1) Pcgin was coated on a 96-well plate and incubated with biotin-labeled GCase, HSP70, and Sortilin (serving as a positive control) respectively. The direct binding was detected by ELISA-based method.
(§2) Pcgin was then expressed in bacteria and purified as a His-tagged protein. The purity was examined by Coomassie Blue staining and confirmed by Western blotting with His probe (FIG. 10). […] Although Pcgin retained GCase and HSP70 binding activity of PGRN, it lacked PGRN's oncogenic activity, including PGRN-activated oncogenic signaling and cell proliferation (data not shown).

[2] = target: T1, Recombinant sortilin (R&D Systems Cat. No. 3154-ST-050) (UniProt Q99523 78-755, biotin-labeled in the solid phase binding assay of FIG. 11; unlabeled in SPR); experiment: solid phase binding, Pcgin coated, biotin-labeled sortilin (positive control), ELISA-based detection
T1 construct: also called biotin-labeled Sortilin
T1 sequence (looked up): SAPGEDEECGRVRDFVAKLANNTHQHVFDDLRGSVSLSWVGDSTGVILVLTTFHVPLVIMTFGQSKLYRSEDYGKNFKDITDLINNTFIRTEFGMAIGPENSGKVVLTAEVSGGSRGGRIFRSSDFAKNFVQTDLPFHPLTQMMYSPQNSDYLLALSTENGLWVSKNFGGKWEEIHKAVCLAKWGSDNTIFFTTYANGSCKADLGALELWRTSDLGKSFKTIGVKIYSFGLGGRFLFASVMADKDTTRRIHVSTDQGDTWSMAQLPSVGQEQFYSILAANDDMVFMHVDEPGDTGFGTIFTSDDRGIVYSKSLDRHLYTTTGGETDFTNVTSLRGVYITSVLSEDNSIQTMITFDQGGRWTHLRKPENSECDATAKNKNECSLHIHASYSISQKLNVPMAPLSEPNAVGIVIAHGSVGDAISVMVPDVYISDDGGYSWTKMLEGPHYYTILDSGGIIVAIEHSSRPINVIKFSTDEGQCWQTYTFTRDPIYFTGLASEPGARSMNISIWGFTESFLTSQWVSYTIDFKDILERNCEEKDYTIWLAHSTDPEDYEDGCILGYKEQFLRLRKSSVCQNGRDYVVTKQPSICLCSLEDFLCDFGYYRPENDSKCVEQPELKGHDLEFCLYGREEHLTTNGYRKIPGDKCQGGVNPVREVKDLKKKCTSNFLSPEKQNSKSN
Procedure: as §1, §2

[3] = target: T2, RFP-fused GBA (encoded by pDsRed-GBA) (UniProt P04062 40-536); experiment: co-IP from co-transfected 293T cells: IP anti-GFP, IB anti-RFP
T2 construct: also called RFP fused GCase; GCase; not shown: RFP (DsRed) tag
T2 sequence (looked up): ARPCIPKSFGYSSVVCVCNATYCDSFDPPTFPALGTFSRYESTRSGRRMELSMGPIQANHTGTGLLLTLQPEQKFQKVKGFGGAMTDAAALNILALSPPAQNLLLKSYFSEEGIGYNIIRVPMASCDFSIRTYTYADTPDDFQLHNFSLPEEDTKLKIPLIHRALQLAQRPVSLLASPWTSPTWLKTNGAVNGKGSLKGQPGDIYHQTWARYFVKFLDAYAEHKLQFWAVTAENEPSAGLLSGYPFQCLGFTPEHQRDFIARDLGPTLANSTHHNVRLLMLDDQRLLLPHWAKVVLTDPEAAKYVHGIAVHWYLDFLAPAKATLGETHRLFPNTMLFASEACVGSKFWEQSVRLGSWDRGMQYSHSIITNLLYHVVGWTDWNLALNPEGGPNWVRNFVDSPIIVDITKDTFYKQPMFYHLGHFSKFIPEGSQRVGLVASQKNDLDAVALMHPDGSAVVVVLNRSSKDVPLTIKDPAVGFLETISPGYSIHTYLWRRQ
Excerpt: (§3) FIG. 8 depicts that Pcgin/ND7 fragment of PGRN has binding motifs for GCase and HSP70. (A) Scheme of Pcgin amino acid structure and its deletion mutants. (B) Co-IP assays for examining the binding of Pcgin and its mutants to GCase and HSP70. 293T cells were transfected with plasmids encoding either GFP fused Pcgin or its mutants, together with plasmids encoding RFP fused GCase and HSP70, and the protein complexes were immunoprecipitated with GFP antibody and probed with RFP or HSP70 antibodies respectively. […] The result is representative of three independent experiments. (C) Structure and sequence of Pcgin/ND7 fragment of PGRN. […] Sequence of Pcgin (SEQ ID NO:4) is shown in the bottom panel. Linker regions and Gm E are highlighted in green and red, respectively. Binding sites of GCase, HSP70, and Sortilin are indicated.

[4] = target: B5; experiment: SPR, SensiQ Pioneer, GBA immobilised, PGRN injected (OneStep)
Procedure: Surface Plasmon Resonance (SPR): All SPR experiments were done by SensiQ Technologies Inc. (Oklahoma City, Okla.) by using SensiQ Pioneer at a controlled analysis temperature of 25° C., and samples in the instrument sample racks were maintained at 18° C. The running buffer throughout the immobilization and the assay consisted of 10 mM HEPES, 150 mM NaCl, 0.005% Tween 20. Buffer pH was adjusted to pH 7.4, 6.5, 6.0 or 5.5 for individual runs, and for each pH the running buffer was used to prepare PGRN samples and sucrose diffusion standards.
The assay of PGRN was performed with a total of five buffer blank injections and two replicates of 200 nM PGRN, all of which were given a 1 hour dissociation time. The OneStep™ injection was used for this assay to determine kinetic rate constants and the equilibrium dissociation constant from a single gradient inject. Two injections of 3% sucrose in running buffer were performed to serve as a diffusion standard.
Data was analyzed using the QDat Analysis Software (SensiQ Technologies and BioLogic Software). All data were double referenced to a reference channel (channel 2) and buffer blanks. The average signal of the buffer blanks was used to subtract injection artifacts. Referenced SPR data from the analysis channels were model fit to ascertain ka, kd, and KD for the interactions.

[5] = target: HSP70 expressed from a plasmid in transfected 293T cells (UniProt P0DMV8 1-641); experiment: co-IP from co-transfected 293T cells: IP anti-GFP, IB anti-HSP70
Sequence of HSP70 expressed from a plasmid in transfected 293T cells (P0DMV8 whole entry): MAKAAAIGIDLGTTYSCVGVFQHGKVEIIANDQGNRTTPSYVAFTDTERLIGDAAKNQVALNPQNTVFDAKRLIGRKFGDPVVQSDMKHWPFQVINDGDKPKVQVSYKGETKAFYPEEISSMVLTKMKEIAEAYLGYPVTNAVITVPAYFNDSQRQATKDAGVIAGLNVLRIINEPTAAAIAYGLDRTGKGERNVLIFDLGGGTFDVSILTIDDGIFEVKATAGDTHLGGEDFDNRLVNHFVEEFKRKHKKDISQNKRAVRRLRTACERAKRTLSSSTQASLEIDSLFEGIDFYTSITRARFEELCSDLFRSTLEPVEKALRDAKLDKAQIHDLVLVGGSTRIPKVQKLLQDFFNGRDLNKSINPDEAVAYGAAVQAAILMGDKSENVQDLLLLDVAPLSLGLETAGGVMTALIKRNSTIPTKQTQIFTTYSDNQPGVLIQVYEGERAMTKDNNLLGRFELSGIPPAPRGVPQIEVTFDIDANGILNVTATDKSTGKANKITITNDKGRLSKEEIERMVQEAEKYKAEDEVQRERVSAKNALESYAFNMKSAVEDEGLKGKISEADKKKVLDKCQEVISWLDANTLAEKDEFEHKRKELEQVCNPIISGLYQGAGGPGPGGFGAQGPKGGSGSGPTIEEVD
Excerpt: as §3

[6] = target: T1, Recombinant sortilin (R&D Systems Cat. …); experiment: SPR, SensiQ Pioneer, sortilin immobilised, PGRN injected (OneStep)
[7] = target: B5; experiment: solid phase binding, PGRN coated, biotin-labeled LIMP2
Procedure: Solid phase binding: 0.1, 1, 2, and 5 μg/ml PGRN proteins were coated in 96-wells with triplicate wells in PBS for overnight. The plate was washed with 0.1% tween/PBS five times and then blocked with 2% BSA/PBS solution. Two μg BSA, LIMP2 and GBA protein were labeled with biotin followed the protocol of EZ-Link Sulfo-NHS-LC-Biotin and Biotinylation Kits (Thermo Scientific). Biotin-labeled LIMP2, GBA or BSA were added in the plate and incubate for 2 hours. Wash with 0.1% tween/PBS, and coated with streptavidin-HRP (1:2000 dilution) solution for 1 hour. After washing add t h e substrate and stop the reaction with […] H₂SO₄. Read result at UV 450 nm in plate reader.

B1: Recombinant Pcgin, His-tagged, expressed in bacteria (other)
chain: EKEVVSAQPATFLARSPHVGVKDVECGEGHFCHDNQTCCRDNRQGWACCPYRQGVCCADRRHCCPAGFRCAARGTKCLRREAPRWDAPLRDPALRQLL
notes: also called ND7; PGRN ND7 fragment; not shown: His tag
B1: binds [1]; binds [2].

B2: GFP fused Pcgin/ND7 deletion mutant lacking aa523-534 (other)
chain: EKEVVSAQPATFLARSPHVGVKDVECGRDNRQGWACCPYRQGVCCADRRHCCPAGFRCAARGTKCLRREAPRWDAPLRDPALRQLL
notes: not shown: GFP tag
B2: no binding [3].

With B3 the Kd [4] was 0.71 nM.

B4: GFP fused Pcgin/ND7 deletion mutant lacking aa535-539 (RDNRQ) (other)
chain: EKEVVSAQPATFLARSPHVGVKDVECGEGHFCHDNQTCCGWACCPYRQGVCCADRRHCCPAGFRCAARGTKCLRREAPRWDAPLRDPALRQLL
notes: also called ΔRDNRQ; ΔDNRQ; not shown: GFP tag
B4: no binding [5].

B5 gave a Kd [6] of 3.67 nM.

B6: Recombinant LIMP2 (lysosomal integral membrane protein 2; R&D Systems Cat. No. 1966-LM-050) (receptor, UniProt Q14108 27-432, looked up)
chain: RVFQKAVDQSIEKKIVLRNGTEAFDSWEKPPLPVYTQFYFFNVTNPEEILRGETPRVEEVGPYTYRELRNKANIQFGDNGTTISAVSNKAYVFERDQSVGDPKIDLIRTLNIPVLTVIEWSQVHFLREIIEAMLKAYQQKLFVTHTVDELLWGYKDEILSLIHVFRPDISPYFGLFYEKNGTNDGDYVFLTGEDSYLNFTKIVEWNGKTSLDWWITDKCNMINGTDGDSFHPLITKDEVLYVFPSDFCRSVYITFSDYESVQGLPAFRYKVPAEILANTSDNAGFCIPEGNCLGSGVLNVSICKNGAPIIMSFPHFYQADERFVSAIEGMHPNQEDHETFVDINPLTGIILKAAKRFQINIYVKKLDDFVETGDIRTMVFPVMYLNESVHIDKETASRLKSMINTT
modifications: biotin-labeled (EZ-Link Sulfo-NHS-LC-Biotin)
notes: also called biotin-labeled LIMP2
B6: no binding [7].
